This note sets out measurements from patent US20250281595A1.

This test concerns the target purified B/Washington/02/2019 HA full ectodomain (wild type) fused with TEV cleavage motif, trimeris (influenza B virus B/Washington/02/2019 (B/Victoria)) (UniProt P22092). Description: BLI (Octet Red), […], Fab CR9114 at 20 ug/ml; […]. A general note: In BLI a coated tip is dipped into the sample, and binding shifts an interference pattern.

For the substance fAb CR9114, the OCTET CR9114 30° C. response was 0.48 nm and the OCTET Fab CR9114 response is 0.38 nm.
